According to article PMC9108986, “Bioinformatic identification of previously unrecognized amyloidogenic proteins” (The Journal of Biological Chemistry, 2022):
Positions count from the first letter of the chain named. In names and notes the source's numbering stands.

B1: mCherry-fused low-complexity domain of TFG, residues 237-327, G269V (domain or fragment, human, UniProt Q92734 237-327, looked up)
chain: GQIEGQMYQQYQQQAGYGAQQPQAPPQQPQQYVIQYSASYSQQTGPQQPQQFQGYGQQPTSQAPAPAFSGQPQQLPAQPPQQYQASNYPAQ
notes: TRK-fused gene protein (TFG), human, low-complexity domain, residues 237-327, with the documented pathogenic mutation G269V (Charcot-Marie-Tooth disease type 2); also called TFG (237-327) G269V; mutant construct; source: E. coli BL21(DE3) Gold, purified (nickel-nitrilotriacetic acid, size-exclusion chromatography), dialyzed into PBS
B2: mCherry-fused low-complexity domain of TFG, residues 237-327, P285L (domain or fragment, human, UniProt Q92734 237-327, looked up)
chain: B1 chain with V33G, P49L
notes: also called TFG (237-327) P285L; mutant construct; source: E. coli BL21(DE3) Gold, purified (nickel-nitrilotriacetic acid, size-exclusion chromatography), dialyzed into PBS

Target: the molecule itself
Assay: amyloid fibre formation (thioflavin T fluorescence + electron microscopy + X-ray fibre diffraction); self-association into fibres; 50 uM protein in 1x PBS with 40 uM ThT, 37 °C, 700 rpm double orbital shaking with a PTFE bead, ~138 h; end-point samples imaged by negative-stain TEM; fibres diffracted (rings at 4.7 and 10 Å)

Row | Protein | binding result
1 | B1 | binds
2 | B2 | binds
